The target of experiment [1] is T1, human PD-L1 (human, UniProt Q9NZQ7). In words: BLI. (In general: In BLI a coated tip is dipped into the sample, and binding shifts an interference pattern.)
A further experiment addresses mouse PD-L1 (mouse, UniProt Q9EP73). In words: SPR. (Surface plasmon resonance follows binding to a sensor surface in real time, without labels.)
Experiment [2] deals with T1, human PD-L1. In words: SPR.

Residue numbers refer to the chain shown, from its start.

T1 sequence (Q9NZQ7 19-238): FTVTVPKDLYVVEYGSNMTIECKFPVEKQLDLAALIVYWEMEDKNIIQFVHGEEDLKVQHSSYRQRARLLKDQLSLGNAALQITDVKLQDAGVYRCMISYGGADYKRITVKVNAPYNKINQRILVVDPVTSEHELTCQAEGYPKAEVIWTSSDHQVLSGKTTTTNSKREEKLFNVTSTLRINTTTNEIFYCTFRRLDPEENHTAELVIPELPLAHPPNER
mouse PD-L1, sequence (Q9EP73 19-238): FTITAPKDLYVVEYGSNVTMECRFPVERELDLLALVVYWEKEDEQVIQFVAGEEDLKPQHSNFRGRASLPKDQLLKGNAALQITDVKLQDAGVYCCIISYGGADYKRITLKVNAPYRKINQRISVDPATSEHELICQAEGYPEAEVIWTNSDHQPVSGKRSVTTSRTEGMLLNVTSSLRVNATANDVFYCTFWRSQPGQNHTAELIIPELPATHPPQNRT

B1: KL001-13 (antibody, V domains shown)
VH: QVQLVESGAEVKKPGSSVKVSCKASGGTFSSYAISWVRQAPGQGLEWMGRIIPILGIANYAQKFQGRVTVTADKSTSTAYMELSSLRSEDTAVYYCARSGYGYAYGSFDYWGQGTLVTVSS
VL: QLVLTQPPSVSGAPGQTVTISCTGQTIGAGYDVHWYQQLPGAAPKLLIYGNLNRPSGVPDRFSGSKSGTSASLAITDLQAEDEADYYCQSYDSRLGVVFGGGTKLTVL
For orientation: Kd means the equilibrium constant for the complex coming apart. Read a low Kd as higher affinity. For B1, the Kd was 0.00489 nM with human PD-L1 [1], around 2.8 nM with mouse PD-L1 and around 0.0632 nM with human PD-L1 [2].

B2: KL001 (PL110) (antibody, V domains shown)
VH: B1 VH with G102S
VL: B1 VL with Q25P
B2 came in with a Kd with human PD-L1 [1] of 0.0584 nM.

The record behind these values is patent publication US12331120 (dated 2025).
